In paper PMC6975927 one finds KM of UBE2D3 in multi-turnover ubiquitylation of 32P-labeled β-Catenin peptide by SCF^βTRCP, KM of UBE2D3 in multi-turnover ubiquitylation of 32P-labeled Cyclin E peptide by SCF^FBW7 and KM of UBE2G1 in multi-turnover ubiquitylation of 32P-labeled mono-ubiquitylated Cyclin E peptide (Ub-Cyclin E) by SCF^FBW7 data, which are given here for 2 molecules.

The target of experiment [1] is SCF^βTRCP (CUL1-RBX1 with full-length βTRCP2 (FBW11)-SKP1 complex) (human) (UniProt Q13616).
Experiment [2] concerns the target SCF^FBW7 (CUL1-RBX1 with FBW7(263-C-terminus)-SKP1 complex) (human) (UniProt Q13616).

As for “UBE2D3 (from UniProt P61077 1-147) (enzyme)”, in experiment [1], the KM of UBE2D3 in multi-turnover ubiquitylation of 32P-labeled β-Catenin peptide by SCF^βTRCP worked out at 0.488 µM. Also, the KM of UBE2D3 in multi-turnover ubiquitylation of 32P-labeled Cyclin E peptide by SCF^FBW7 in experiment [2] is 1.67 µM.

B1: UBE2G1 (enzyme)
chain: MTELQSALLLRRQLAELNKNPVEGFSAGLIDDNDLYRWEVLIIGPPDTLYEGGVFKAHLTFPKDYPLRPPKMKFITEIWHPNVDKNGDVCISILHEPGEDKYGYEKPEERWLPIHTVETIMISVISMLADPNGDSPANVDAAKEWREDRNGEFKRKVARCVRKSQETAFE
Consider B1, for which, in experiment [2], the KM of UBE2G1 in multi-turnover ubiquitylation of 32P-labeled mono-ubiquitylated Cyclin E peptide (Ub-Cyclin E) by SCF^FBW7 came to 1.3 µM.
